The test has as its target BAFF-Fc (Sino Biological) (human) (UniProt Q9Y275). As to the kind of experiment: cell-based or functional assay.
Sequence of UniProt Q9Y275 (Q9Y275 134-285): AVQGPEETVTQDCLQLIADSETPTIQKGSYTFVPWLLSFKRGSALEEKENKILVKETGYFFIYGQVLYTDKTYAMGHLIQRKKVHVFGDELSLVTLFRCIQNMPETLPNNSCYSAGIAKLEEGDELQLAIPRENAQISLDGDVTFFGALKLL

“endogenous BAFF receptor, BR3 (from UniProt Q96RJ3 1-78)” displayed an IC50, inhibition of BAFF bioactivity in the mouse splenocyte assay of 121 nM.

For the origin of these results see patent publication US20200115702A1.
